Values belong to the sequence of their own block, whether it stands above or below them.
Tests used:
HLA-A*02:03 = assay: IEDB peptide-MHC binding, purified MHC/competitive/radioactivity; filed as Kd, often an IC50 or EC50 that approximates it; ≥ and ≤ were set here for values at or beyond the usual limits of such assays
HLA-A*02:02 = assay: as above
HLA-A*02:06 = assay: as above
HLA-B*44:03 = assay: as above
HLA-B*44:02 = assay: as above
HLA-A*01:01 = assay: as above
HLA-A*26:01 = assay: as above
HLA-A*24:02 = assay: as above
HLA-A*23:01 = assay: as above
HLA-A*29:02 = assay: as above
HLA-B*58:01 = assay: IEDB peptide-MHC binding, purified MHC/direct/fluorescence; filed as Kd, often an IC50 or EC50 that approximates it; ≥ and ≤ were set here for values at or beyond the usual limits of such assays; conditions: source organism: Mycobacterium tuberculosis variant bovis
HLA-A*03:01 = assay: as above
HLA-B*07:02 = assay: as above; conditions: source organism: Human immunodeficiency virus 1
HLA-A*11:01 = assay: as above; conditions: source organism: Bacillus licheniformis
HLA-B*15:01 = assay: as above; conditions: source organism: Bacillus licheniformis
HLA-A*30:02 = assay: IEDB peptide-MHC binding, purified MHC/competitive/radioactivity; filed as Kd, often an IC50 or EC50 that approximates it; ≥ and ≤ were set here for values at or beyond the usual limits of such assays; conditions: source organism: Dengue virus 4 Philippines/H241/1956
[1] = source organism: Vaccinia virus WR
[2] = source organism: SARS coronavirus Tor2
[3] = source organism: Dengue virus 3 Sri Lanka/1266/2000
[4] = source organism: Dengue virus 2 Jamaica/1409/1983
[5] = source organism: Mammarenavirus guanaritoense
[6] = source organism: Dengue virus 3 Martinique/1243/1999
[7] = source organism: Dengue virus 4 Philippines/H241/1956
[8] = source organism: Dengue virus 1 Singapore/S275/1990
[9] = source organism: Mammarenavirus whitewaterense
[10] = source organism: Mammarenavirus lassaense
[11] = source organism: Dengue virus 1 Nauru/West Pac/1974
[12] = source organism: Lassa virus Josiah
[13] = source organism: Lymphocytic choriomeningitis virus (strain Armstrong)

Sequence: DISDVKVLAA
- Kd (HLA-A*02:03; [1]): 2.2 µM
- Kd (HLA-A*02:02; [1]): ≥ 33.8 µM
- Kd (HLA-A*02:06; [1]): 4.61 µM

Sequence: ELTSNCTRT
- Kd (HLA-A*02:03; [1]): ≥ 78.1 µM
- Kd (HLA-A*02:02; [1]): ≥ 77.8 µM
- Kd (HLA-A*02:06; [1]): ≥ 46.5 µM

Sequence: AIILASFSA
- Kd (HLA-A*02:03; [2]): 0.176 µM
- Kd (HLA-A*02:02; [2]): 0.201 µM
- Kd (HLA-A*02:06; [2]): 0.0816 µM

Sequence: MEAQLVRQM
- Kd (HLA-B*44:03; [3]): 0.123 µM
- Kd (HLA-B*44:02; [3]): 0.0147 µM

Sequence: AVANCVRNL
- Kd (HLA-A*02:03; [1]): 0.114 µM
- Kd (HLA-A*02:02; [1]): 0.0663 µM
- Kd (HLA-A*02:06; [1]): 1.38 µM

Sequence: LILSNKLLYA
- Kd (HLA-A*02:03; [1]): 0.122 µM
- Kd (HLA-A*02:02; [1]): 0.468 µM
- Kd (HLA-A*02:06; [1]): 0.0361 µM

Sequence: VTGSYNLVDT
- Kd (HLA-A*02:03; [1]): ≥ 70.4 µM
- Kd (HLA-A*02:02; [1]): ≥ 70 µM
- Kd (HLA-A*02:06; [1]): ≥ 69.8 µM

Sequence: GVPHSVFIA
- Kd (HLA-A*02:03; [1]): 3.63 µM
- Kd (HLA-A*02:02; [1]): 5.37 µM
- Kd (HLA-A*02:06; [1]): 0.101 µM

Sequence: ESEMIIPKNF
- Kd (HLA-A*01:01; [4]): ≥ 70.4 µM
- Kd (HLA-A*26:01; [4]): ≥ 69.7 µM

Sequence: NYADRRWCF
- Kd (HLA-A*24:02; [4]): 0.0122 µM
- Kd (HLA-A*23:01; [4]): 0.0506 µM

Sequence: TQSGALEVLM
- Kd (HLA-A*02:03; [1]): 15.4 µM
- Kd (HLA-A*02:02; [1]): 0.836 µM
- Kd (HLA-A*02:06; [1]): 2.23 µM

Sequence: GYRFFNKTL
- Kd (HLA-A*24:02; [5]): 1.19 µM
- Kd (HLA-A*29:02; [5]): 3.59 µM
- Kd (HLA-A*23:01; [5]): 0.21 µM

Sequence: ELPETMETLL
- Kd (HLA-A*26:01; [6]): 2.37 µM

Sequence: NTITTFIPI
- Kd (HLA-A*02:03; [1]): 0.988 µM
- Kd (HLA-A*02:02; [1]): 15.5 µM
- Kd (HLA-A*02:06; [1]): 7.77 µM

Sequence: IQYRQQLEL
- Kd (HLA-A*02:03; [1]): 0.0449 µM
- Kd (HLA-A*02:02; [1]): 0.511 µM
- Kd (HLA-A*02:06; [1]): 0.0413 µM

Sequence: RDTAEAAKW
- Kd (HLA-B*58:01): 1.59 µM

Sequence: KEVALLRTYC
- Kd (HLA-B*44:03; [7]): 0.128 µM

Sequence: FTDPSSVAA
- Kd (HLA-A*01:01; [7]): 0.00171 µM
- Kd (HLA-A*02:06; [7]): 0.0594 µM

Sequence: LTDFQSHQL
- Kd (HLA-A*01:01; [8]): 6.44 µM

Sequence: SYKIGHHVEL
- Kd (HLA-A*24:02; [9]): 12.9 µM
- Kd (HLA-A*29:02; [9]): ≥ 56.9 µM
- Kd (HLA-A*23:01; [9]): 15.9 µM

Sequence: YLMCLSPLM
- Kd (HLA-A*02:03; [2]): 0.000297 µM
- Kd (HLA-A*02:02; [2]): 0.000137 µM
- Kd (HLA-A*02:06; [2]): 0.00112 µM

Sequence: HFFMKHPNK
- Kd (HLA-A*03:01; source organism: Coxiella burnetii): 0.218 µM

- Kd (HLA-A*01:01; source organism: Homo sapiens): 0.252 µM
Sequence: PFDTRQMLFY

Sequence: QEHETSWHYD
- Kd (HLA-B*44:03; [4]): 0.746 µM
- Kd (HLA-B*44:02; [4]): 0.158 µM

Sequence: IVSHLRASTT
- Kd (HLA-A*02:03; [1]): 0.111 µM
- Kd (HLA-A*02:02; [1]): 0.139 µM
- Kd (HLA-A*02:06; [1]): 0.173 µM

Sequence: FTEEQQQSFM
- Kd (HLA-A*02:03; [1]): 1.75 µM
- Kd (HLA-A*02:02; [1]): 1.12 µM
- Kd (HLA-A*02:06; [1]): 0.833 µM

Sequence: IPLTEEAEL
- Kd (HLA-B*07:02): 5.31 µM

Sequence: AMWLLLLSI
- Kd (HLA-A*02:03; [2]): 0.205 µM
- Kd (HLA-A*02:02; [2]): 0.357 µM
- Kd (HLA-A*02:06; [2]): 0.268 µM

Sequence: QIFNIISYII
- Kd (HLA-A*02:03; [1]): 0.206 µM
- Kd (HLA-A*02:02; [1]): 0.288 µM
- Kd (HLA-A*02:06; [1]): 0.743 µM

Sequence: LNCLSLLLSV
- Kd (HLA-A*02:03; [10]): 0.23 µM
- Kd (HLA-A*02:02; [10]): 0.123 µM
- Kd (HLA-A*02:06; [10]): 0.25 µM

Sequence: GVGAPTTTY
- Kd (HLA-A*03:01; source organism: Bacillus licheniformis): 7.45 µM
- Kd (HLA-A*11:01): 10.1 µM
- Kd (HLA-B*15:01): 0.12 µM

Sequence: SELETPNLAE
- Kd (HLA-B*44:03; [8]): 6.33 µM

Sequence: YVIGLLPQS
- Kd (HLA-A*02:03; [5]): ≥ 78.1 µM
- Kd (HLA-A*02:02; [5]): ≥ 77.7 µM
- Kd (HLA-A*02:06; [5]): ≥ 48 µM

Sequence: LLWDYMCIS
- Kd (HLA-A*02:03; [10]): 0.596 µM
- Kd (HLA-A*02:02; [10]): 0.146 µM
- Kd (HLA-A*02:06; [10]): 0.408 µM

Sequence: VTTWENVPYL
- Kd (HLA-A*01:01; [6]): 11.3 µM

Sequence: EAEPPFGESY
- Kd (HLA-A*01:01; [11]): 1.36 µM
- Kd (HLA-A*26:01; [11]): 0.669 µM

Sequence: DTSEVHWNY
- Kd (HLA-A*30:02): 3.86 µM
- Kd (HLA-A*01:01; [7]): 0.111 µM
- Kd (HLA-A*26:01; [7]): 0.0416 µM

Sequence: YVSVMNFIPI
- Kd (HLA-A*02:03; [1]): 0.152 µM
- Kd (HLA-A*02:02; [1]): 0.341 µM
- Kd (HLA-A*02:06; [1]): 0.000109 µM

Sequence: PYVPMPCMI
- Kd (HLA-A*24:02; [9]): 0.0574 µM
- Kd (HLA-A*29:02; [9]): ≥ 60.7 µM
- Kd (HLA-A*23:01; [9]): 0.0417 µM

Sequence: LNQAVNNLV
- Kd (HLA-A*02:03; [12]): 3.35 µM
- Kd (HLA-A*02:02; [12]): 0.51 µM
- Kd (HLA-A*02:06; [12]): 13.6 µM

Sequence: GTMPSLTMAC
- Kd (HLA-A*02:03; [13]): 16.3 µM
- Kd (HLA-A*02:02; [13]): ≥ 25.2 µM
- Kd (HLA-A*02:06; [13]): 12.1 µM
